For experiment [1], the target named is T1, mouse PTK-7 recombinant protein (mouse, UniProt Q8BKG3 23-696, limits assumed).
T1 construct: also called mouse PTK7 protein
T1 sequence (looked up): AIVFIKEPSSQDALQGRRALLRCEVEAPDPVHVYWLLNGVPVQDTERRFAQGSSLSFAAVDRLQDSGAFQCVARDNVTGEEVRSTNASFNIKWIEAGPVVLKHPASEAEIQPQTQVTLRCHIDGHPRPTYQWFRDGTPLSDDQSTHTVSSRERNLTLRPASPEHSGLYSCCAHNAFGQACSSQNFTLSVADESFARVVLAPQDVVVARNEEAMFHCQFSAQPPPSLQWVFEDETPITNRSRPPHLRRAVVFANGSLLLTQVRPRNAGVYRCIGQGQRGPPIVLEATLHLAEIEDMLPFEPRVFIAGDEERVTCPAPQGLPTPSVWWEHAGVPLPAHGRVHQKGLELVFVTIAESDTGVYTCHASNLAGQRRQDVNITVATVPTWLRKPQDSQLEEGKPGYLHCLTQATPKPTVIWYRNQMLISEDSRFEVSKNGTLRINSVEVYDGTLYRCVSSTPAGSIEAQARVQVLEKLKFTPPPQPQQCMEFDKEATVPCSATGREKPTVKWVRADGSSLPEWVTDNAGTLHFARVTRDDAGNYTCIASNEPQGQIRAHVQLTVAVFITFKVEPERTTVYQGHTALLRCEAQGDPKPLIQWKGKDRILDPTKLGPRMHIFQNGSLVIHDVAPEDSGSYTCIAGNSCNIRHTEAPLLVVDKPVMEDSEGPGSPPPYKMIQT
Put plainly: ELISA, plate-coated mouse PTK7 recombinant protein. Here is the method: Binding specificity property was tested by ELISA according to a standard protocol. Specifically, 96-well micro-plates were coated with 2 μg/mL human, cynomolgus, mouse, and rat PTK-7 recombinant protein in PBS 100 μL per well, incubated overnight at 4° C. Plates were washed twice by TBS+0.5% Tween20. 200 μL of blocking buffer (2% BSA in PBS) was added to each well and incubated at 37° C. for 2 hours. Plates were washed using the buffer mentioned above. Serially diluted antibodies were added to the ELISA plate with 100 μL per well and incubated for 1 hour at room temperature. Then plates were washed for 3 times. After washing, HRP conjugated anti-human Fc antibody solution (abcam, ab98624, diluted with blocking buffer) was added to the plate with 100 μl per well. The plates were incubated at room temperature for 1 hour and then washed for 3 times. Then TMB solution was added to plates with 100 μl per well, placed at room temperature for 5-15 mins, then the stop solution (2M H₂SO₄) was added with 50 μl per well. Finally, the result was measured by absorbance at A₄₅₀ and A₆₃₀.
On the technique in general: An ELISA detects its analyte on a solid surface through an enzyme-linked reagent.

The target of experiment [2] is T2, human PTK7 extra-cellular domain (ECD) linked to His tag (human, UniProt Q13308 31-704).
T2 construct: extracellular domain; also called hPTK7-his; human PTK7-his protein; not shown: His tag
T2 sequence (looked up): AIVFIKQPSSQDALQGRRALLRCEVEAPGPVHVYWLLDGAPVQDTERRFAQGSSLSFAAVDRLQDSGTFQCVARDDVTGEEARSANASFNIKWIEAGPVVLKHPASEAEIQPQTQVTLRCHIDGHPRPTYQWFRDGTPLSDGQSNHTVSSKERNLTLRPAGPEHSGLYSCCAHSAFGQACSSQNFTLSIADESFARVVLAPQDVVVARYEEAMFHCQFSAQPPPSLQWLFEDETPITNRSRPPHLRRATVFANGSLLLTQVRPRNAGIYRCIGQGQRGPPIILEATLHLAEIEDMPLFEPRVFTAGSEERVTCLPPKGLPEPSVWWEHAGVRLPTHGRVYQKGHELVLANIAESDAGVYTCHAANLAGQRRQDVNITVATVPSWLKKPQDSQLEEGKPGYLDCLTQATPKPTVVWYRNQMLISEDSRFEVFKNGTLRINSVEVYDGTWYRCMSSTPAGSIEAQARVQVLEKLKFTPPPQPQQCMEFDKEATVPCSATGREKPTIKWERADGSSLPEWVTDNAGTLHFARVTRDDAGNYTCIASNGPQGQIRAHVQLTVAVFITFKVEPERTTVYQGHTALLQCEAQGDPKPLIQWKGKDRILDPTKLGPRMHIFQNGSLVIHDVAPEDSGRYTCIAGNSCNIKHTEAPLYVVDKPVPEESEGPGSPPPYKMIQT
The experiment in a line: BLI (Octet RED), antibody on anti-human IgG Fc tips, PTK7 ECD-His 100 to 1.56 nM in solution, 1:1 global fit. Here is the method:
(§1) Recombinant proteins consisting of the PTK7 extra-cellular domain (ECD) linked to His tag were purchased from ACRO biosystems. […] Binding assays using varying concentrations from 100 nM down to 1.56 nM of recombinant proteins (human, cynomolgus) in solution were performed using Octet RED (ForteBio). Association time was set at 180 seconds and dissociation time was set at 300 seconds. Binding affinity was calculated using ForteBio Data Acquisition 6.3 software (ForteBio). Affinity was derived by fitting the kinetic data to a 1:1 Langmuir binding model utilizing global fitting algorithms.
In general terms: BLI is a label-free optical method that tracks binding on a fibre tip over time.

Experiment [3] concerns the target T3, cynomolgus PTK7 extra-cellular domain (ECD) linked to His tag (cynomolgus monkey, UniProt A0A2K5VNI5 39-712).
T3 construct: extracellular domain; also called cPTK7-his; cynomolgus monkey PTK7-his protein; not shown: His tag
T3 sequence: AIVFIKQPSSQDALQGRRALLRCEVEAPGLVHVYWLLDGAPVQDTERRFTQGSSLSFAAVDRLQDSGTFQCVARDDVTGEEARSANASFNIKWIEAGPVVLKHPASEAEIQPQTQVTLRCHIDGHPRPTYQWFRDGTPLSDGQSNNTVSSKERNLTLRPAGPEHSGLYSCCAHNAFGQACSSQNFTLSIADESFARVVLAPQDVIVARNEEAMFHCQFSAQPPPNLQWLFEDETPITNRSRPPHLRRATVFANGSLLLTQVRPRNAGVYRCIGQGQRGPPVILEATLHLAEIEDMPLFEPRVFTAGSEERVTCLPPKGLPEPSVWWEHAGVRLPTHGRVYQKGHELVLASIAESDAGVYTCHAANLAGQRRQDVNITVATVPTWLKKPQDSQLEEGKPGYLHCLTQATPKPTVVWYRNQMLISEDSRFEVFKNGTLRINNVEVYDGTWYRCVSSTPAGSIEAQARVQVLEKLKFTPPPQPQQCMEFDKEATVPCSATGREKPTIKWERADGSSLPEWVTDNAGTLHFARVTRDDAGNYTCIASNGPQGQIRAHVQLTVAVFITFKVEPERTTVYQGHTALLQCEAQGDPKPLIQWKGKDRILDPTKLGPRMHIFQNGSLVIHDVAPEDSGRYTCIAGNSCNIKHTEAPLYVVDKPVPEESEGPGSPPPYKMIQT
The description is as above. The protocol: as §1

B1: humanized antibody 2C8 (antibody, V domains shown)
VH: QIQLVQSGAEVKKPGASVKVSCKASGYTFTTYGMSWVRQAPGQGLEWMGWINTHSGVPTYVDEFKGRVTMTLDTSTSTAYMELSSLRSEDTAVYYCARSPFDYGSRGAWFVYWGQGTTVTVSS
VL: DVVMTQSPDSLAVSLGERATINCRSSQSIVHNSGDTYLEWYQQKPGQPPKLLIYKVSNRFPGVPDRFSGSGSGTDFTLTISSLQAEDLAVYYCFQGSHVPWTFGGGTKVEIK
notes: Only variable regions are tied to 2C8 by name; It was detected with anti-human Fc
As for B1, the binding result in experiment [1] is “no binding”.

B2: humanized antibody 13C4 (antibody, V domains shown)
VH: QVQLVESGGGLVKPGGSLRLSCAASGFAFSTYDMFWIRQAPGKGLEWVSTISSGGGYTYYPGSVKGRFTISRDNAKNSLYLQMNSLRAEDTAVYYCVRPLLRDSYFYFDVWGQGTMVTVSS
VL: EIVMTQSPATLSVSPGERATLSCRASSSVSSSYLHWYQQKPGQAPRLLIFRTSNLASGIPARFSGSGSGTEYTLTISSLQSEDAAVYYCQQYSGYPLTFGQGTKLEIK
notes: Only variable regions are tied to 13C4; It was detected with anti-human Fc
B2: the binding result in experiment [1] is on record as “no binding”. Besides, in experiment [2], the Kd came to 0.798 nM, the koff is 0.000132 s⁻¹ and the kon was 166000 M⁻¹ s⁻¹. In experiment [3], the Kd was under 0.001 nM, the koff is under 1e-07 s⁻¹ and the kon is 54100 M⁻¹ s⁻¹.

B3: humanized antibody 2C5 (antibody, V domains shown)
VH: QVQLVQSGAEVKKPGASVKVSCKASGYTFTDYYINWVRQAPGQGLEWMGDINPYSGGPVYNQKFMARVTMTVDKSINTAYMELSRLRSDDTAVYYCARGDYYGSNYNYWGQGTLVTVSS
VL: EIVLTQSPATLSVSPGERATLSCRASQNIGTSIHWYQQKPGQAPRLLIKFASESISGIPARFSGSGSGTEFTLTISSLQSEDIAVYYCQQSNNWPYTFGQGTKLEIK
notes: Only variable regions are tied to 2C5; It was detected with anti-human Fc, so it has a human Fc
As to B3, in experiment [2], the dissociation constant (Kd) is at most 0.00139 nM, the koff was under 1e-07 s⁻¹ and the kon stood at 34800 M⁻¹ s⁻¹. In experiment [3], this molecule displayed a dissociation constant Kd of 0.0904 nM, a koff of 2.02e-05 s⁻¹ and a kon of 224000 M⁻¹ s⁻¹.

By Kd is commonly meant the constant that tells how readily two partners part at equilibrium. As usually defined, the koff is the first-order rate constant of dissociation. High values mean fast dissociation, low ones slow dissociation. As a reminder, the kon is the second-order rate constant of association.

These data come from patent US20250115680A1 (PROFOUNDBIO US, published 2025).
